T1: human macrophage mannose receptor (human, UniProt P22897 19-1456)
T1 construct: whole, on cells; In the immunoprecipitations it came from cell lysates; also called human B11 antigen; B11 target antigen
T1 sequence (looked up): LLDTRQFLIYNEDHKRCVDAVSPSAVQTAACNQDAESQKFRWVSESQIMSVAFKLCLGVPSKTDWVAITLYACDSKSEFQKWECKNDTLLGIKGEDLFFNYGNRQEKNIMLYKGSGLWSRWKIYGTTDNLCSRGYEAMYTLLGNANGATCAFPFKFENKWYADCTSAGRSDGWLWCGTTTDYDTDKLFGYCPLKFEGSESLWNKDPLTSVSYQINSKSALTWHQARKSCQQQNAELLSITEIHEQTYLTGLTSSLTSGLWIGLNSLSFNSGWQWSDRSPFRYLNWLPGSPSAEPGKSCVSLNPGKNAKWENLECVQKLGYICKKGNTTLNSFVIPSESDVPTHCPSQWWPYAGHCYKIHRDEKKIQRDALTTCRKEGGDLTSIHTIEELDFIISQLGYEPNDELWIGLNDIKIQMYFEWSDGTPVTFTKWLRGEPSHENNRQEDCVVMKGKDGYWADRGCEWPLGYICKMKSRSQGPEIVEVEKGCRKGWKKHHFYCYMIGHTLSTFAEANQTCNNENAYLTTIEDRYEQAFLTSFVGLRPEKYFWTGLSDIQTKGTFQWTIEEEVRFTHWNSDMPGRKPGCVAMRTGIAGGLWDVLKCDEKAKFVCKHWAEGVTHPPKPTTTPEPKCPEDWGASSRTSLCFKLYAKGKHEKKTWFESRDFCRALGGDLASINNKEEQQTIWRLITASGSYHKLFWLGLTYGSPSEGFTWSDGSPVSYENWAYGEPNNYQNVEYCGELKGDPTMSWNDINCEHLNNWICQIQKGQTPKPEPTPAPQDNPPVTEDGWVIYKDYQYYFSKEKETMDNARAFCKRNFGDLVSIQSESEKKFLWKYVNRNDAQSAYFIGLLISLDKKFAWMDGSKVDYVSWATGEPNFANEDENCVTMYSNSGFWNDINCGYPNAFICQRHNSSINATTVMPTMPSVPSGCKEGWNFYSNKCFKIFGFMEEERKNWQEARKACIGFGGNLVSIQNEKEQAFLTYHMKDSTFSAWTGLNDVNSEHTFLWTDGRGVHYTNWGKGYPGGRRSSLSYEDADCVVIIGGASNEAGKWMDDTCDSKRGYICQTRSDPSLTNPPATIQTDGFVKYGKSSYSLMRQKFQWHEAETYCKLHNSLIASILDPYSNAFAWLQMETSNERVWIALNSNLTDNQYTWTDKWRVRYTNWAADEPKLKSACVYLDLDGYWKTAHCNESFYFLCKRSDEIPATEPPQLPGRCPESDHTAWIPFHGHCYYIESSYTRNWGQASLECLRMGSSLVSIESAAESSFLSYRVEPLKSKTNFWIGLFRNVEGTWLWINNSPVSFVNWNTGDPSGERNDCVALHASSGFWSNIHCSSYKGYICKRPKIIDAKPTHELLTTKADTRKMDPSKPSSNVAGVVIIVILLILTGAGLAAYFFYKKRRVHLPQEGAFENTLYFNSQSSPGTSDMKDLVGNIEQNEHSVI

B1: human monoclonal antibody B11 (antibody, human IgG1, V domains shown)
VH: EVQLVQSGAEVKKPGESLRISCKGSGDSFTTYWIGWVRQMPGKGLEWMGIIYPGDSDTIYSPSFQGQVTISADKSISTAYLQWSSLKASDTAMYYCTRGDRGVDYWGQGTLVTVSS
VL: DIQMTQSPSSLSASVGDRVTITCRASQGISRWLAWYQQKPEKAPKSLIYAASSLQSGVPSRFSGSGSGTDFTLTISGLQPEDFATYYCQQYNSYPRTFGQGTKVEIK
notes: Human IgG1 kappa from a HuMAb mouse hybridoma; also called B11 HuMab; mAb B11
B2: F(ab')2 fragments of human monoclonal antibody B11 (other)
VH: B1 VH
VL: B1 VL
notes: See the note of m1 on the VH/VL conflict; also called B11 F(ab')2

Assays:
[1] = molecular target: T1, human macrophage mannose receptor; experiment: flow cytometry, hybridoma supernatant on monocyte-derived human dendritic cells
Experimental: The hybridomas secreting human IgG were tested for reactivity with various types of blood cells by flow cytometry. Dendritic cells were prepared from adherent mononuclear cells by culturing for 5-7 days in media supplemented with GM-CSF and IL-4. Granulocytes (PMN), monocytes and lymphocytes were obtained from heparanized whole blood. The cells were incubated with hybridoma supernatants from IgG-positive clones at 4° C. Binding was detected with a FITC-labeled goat anti-human IgG(Fc) probe. The cell associated fluorescence was determined by analysis using a FACScalibur instrument.

[2] = molecular target: T1, human macrophage mannose receptor; experiment: flow cytometry on monocyte-derived dendritic cells, anti-human IgG-F(ab')2-PE probe
Experimental: The reactivity of F(ab′)2 fragments of human monoclonal antibody B11 with dendritic cells from human tissues was evaluated by flow cytometry.
F(ab′)2 fragments were prepared by digestion of purified B11 mAb with pepsin under standard conditions. The F(ab′)2 fragments were purified by protein L chromatography. Dendritic cells, prepared fresh from human monocytes by culture in GM-CSF and IL-4, were incubated with whole antibody or F(ab′)2 antibody fragments for 1 hour at 4° C. The cells were washed before incubation with anti-human IgG-F(ab′)2-PE probe for 1 hour at 4° C. The cells were washed again prior to analysis using a FACScalibur instrument and Cellquest software.

Binder | binding result [1] | binding result [2]
B1 | binds | 
B2 |  | binds
